# Measured values from patent US20140100172A1 (MALLINCKRODT, published 2014).
# Where two headings read alike, the source gives them in different places. Square brackets hold non-standard residues; d marks the D form. * marks the point of attachment. 2Nal = N[C@@H](Cc1ccc2ccccc2c1)C(=O)O; NMeR = CN[C@@H](CCCNC(=N)N)C(=O)O; Dap = NC[C@H](N)C(=O)O; nal = not defined here; 125I = [125I]*
# B1: cyc[D-Tyr-His-Arg-Nal-Gly] (peptide)
# peptide: cyclo([dY]HR[2Nal]G)
# SMILES: N=C(N)NCCC[C@@H]1NC(=O)[C@H](Cc2c[nH]cn2)NC(=O)[C@@H](Cc2ccc(O)cc2)NC(=O)CNC(=O)[C@H](Cc2ccc3ccccc3c2)NC1=O
# B2: cyc[D-Tyr-(Me)Arg-Arg-Nal-Gly] (peptide)
# peptide: cyclo([dY][NMeR]R[2Nal]G)
# SMILES: CN1C(=O)[C@@H](Cc2ccc(O)cc2)NC(=O)CNC(=O)[C@H](Cc2ccc3ccccc3c2)NC(=O)[C@H](CCCNC(=N)N)NC(=O)[C@@H]1CCCNC(=N)N
# notes: also called OD1
# B3: cyc[D-Tyr-Arg-Arg-nal-Ala-Gly] (peptide)
# peptide: cyclo([dY]RR[nal]AG)
# modifications: reading uncertain; also: printed as cyc[D-Tyr-Arg-Arg-nal-Ala-Gly]
# notes: differs by nal against Nal; also called BL 40
# B4: human chemokine receptor type 4 (CXCR4) (receptor, UniProt P61073 1-352, looked up)
# chain: MEGISIYTSDNYTEEMGSGDYDSMKEPCFREENANFNKIFLPTIYSIIFLTGIVGNGLVILVMGYQKKLRSMTDKYRLHLSVADLLFVITLPFWAVDAVANWYFGNFLCKAVHVIYTVNLYSSVLILAFISLDRYLAIVHATNSQRPRKLLAEKVVYVGVWIPALLLTIPDFIFANVSEADDRYICDRFYPNDLWVVVFQFQHIMVGLILPGIVILSCYCIIISKLSHSKGHQKRKALKTTVILILAFFACWLPYYIGISIDSFILLEIIKQGCEFENTVHKWISITEALAFFHCCLNPILYAFLGAKFKTSAQHALTSVSRGSSLKILSKGKRGGHSSVSTESESSSFHSS
# notes: whole, on cells; also called CXCR4 receptor; CXCR4 chemokine receptor
# What was measured:
# [1] = biological target: B4; assay: radioligand binding on Jurkat and CMS5/CXCR4 cells
# [2] = biological target: B4; assay: saturation radioligand binding, Jurkat and CMS5/CXCR4 cells
# [3] = biological target: B4; assay: competition with 125I-CPCR4 tracer on CXCR4-expressing cells
# [4] = biological target: B4; assay: as above; remark: listed apart in the source
# [5] = biological target: B4; assay: as above; remark: listed apart in the source
# [6] = biological target: T1, recombinant human SDF-1α (stromal cell-derived factor 1α) (human, UniProt P48061-2 22-89); assay: competitive radioligand binding on CXCR4-expressing cells
# T1 construct: also called SFD-1α
# [7] = biological target: B4; assay: competition with 125I-CPCR4 tracer on CXCR4-expressing cells; remark: listed apart in the source
binder,measurement,setting,value
cyclo([dY](125I)RR[2Nal]G) (also called radiolabeled CPCR4) [125I-CPCR4],Kd,[1],0.4 nM
same,Kd,[2],0.3 to 0.4 nM
B1,IC50,[3],30 nM
B2,IC50,[4],23 nM
cyclo([dY]R[NMeR][2Nal]G) (also called OD3) [cyc[D-Tyr-Arg-(Me)Arg-Nal-Gly]],IC50,[4],31 nM
B3,IC50,[5],~1000 nM
B4,binding result,[6],binds
"cyclo([dY]RR[2Nal][Dap]G) (not fully specified (residue 5); printed as cyc[D-Tyr-Arg-Arg-Nal-Dap(FP)-Gly], also called BL 58; BL58) [cyc[D-Tyr-Arg-Arg-Nal-Dap(FP)-Gly]]",IC50,[7],~1000 nM
